Data: publication PMC3268818

Molecular target: BclXL_FL, full-length human BclXL (residues 1–233) (human), Q07817
Assay: ITC

Chain of BclXL_FL, full-length human BclXL (residues 1–233) (human), Q07817 (Q07817 whole entry, the tested form may be a part): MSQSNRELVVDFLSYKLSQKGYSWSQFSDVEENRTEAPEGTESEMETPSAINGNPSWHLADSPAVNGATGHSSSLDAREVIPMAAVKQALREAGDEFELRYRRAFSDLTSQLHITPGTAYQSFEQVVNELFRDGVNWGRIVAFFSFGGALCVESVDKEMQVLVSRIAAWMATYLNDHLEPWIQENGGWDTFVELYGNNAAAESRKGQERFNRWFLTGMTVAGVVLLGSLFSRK

DIIRNIARHLAQVGDSMDRS (modifications not checked) [Bid_BH3 peptide (20-mer spanning the BH3 domain of human Bid)]
Kd: 9.97 µM
dH: -18.7 kcal/mol
